For twelve molecules, binding result and koff results are on record in patent US20240368233A1 (University of Washington, published 2024).

First the molecules themselves.
B1: LHD101 A10 (designed binder)
single chain, LHD101 chain A fused to DHR10: HHHHHHGSGLNDIFEAQKIEWHEAENLYFQSGSSSEKEELRERLVKIVVENAKRKGDDTEEAREAAREAFELVREAAERAGIDSSEVLELAIRLIKEVVENAQREGYDISEAARAAAEAFKRVAEAAKRAGITSSEVLELAIILIKLVVELAQRKGYDISEAARAAAELFKRLAEALKRAGKTSERALALLILLLAIEILVRDMGVTMETHPSGNEVKVVIKGLHIKQQRQLYRLVREAAKLLGVEVEIEVEGDTVTIVVRGGS
B2: 29B53 (designed binder)
chain: SSIFLLSNVDESARQLAEELVREISKKEGTEVRFEKDDGFLTIEVKNLSEERLREIARALQLIVDVANAERVVRERPGSNLAKKALEIILRAAEELAKLPLKASLKAAVIAAELVVREQPGSNLAKKALEIILRAAEELAKLPDPEALKEAVKAAEKVVREQPGSELAKKALEIIERAAEELKKSPDPEAQKEAKKAEQKVREERPGSSGSHHHHHH
notes: also called LHD29B53
B3: 101B4 (designed binder)
chain: HHHHHHGSGLNDIFEAQKIEWHEAENLYFQSGSYEDECEEKARRVAEKVERLKRSGTSEDEIAEEVAREISEVIRTLKESGSSYEVICECVARIVAEIVEALKRSGTSEDEIAEIVARVISEVIRTLKESGSSYEVICECVARIVAEIVEALKRSGTSEEEIAEIVARVIQEVIRTLKESGSSYEVIRECLRRILEEVIEALKRSGVDSSEIVLIIIKIAVAVMGVTMEEHRSGNEVKVVIKGLHESQQEELLELVLRAAELAGVRVRIRFKGDTVTIVVRG
notes: also called LHD101B4
B4: 202B64 (designed binder)
single chain, LHD202 chain B fused to DHR64: GSSVEFHIVNIDEDVAQLIELAVKLISKEEGTEVRFEKRDGELTIEVKNLHEKDLQLILELIEALLLIARAIELLRQAKEKGSEEDLEKALRTAEESARRLKKVLEKAEKLGNLGVALAAVAGVVLVAELLLRIAKESGSEEALERALRVAEEAARLAKRVLELAEKLGDAEAALLAVELVVRVAELLLRIAKESGSEEALERALRVAEEAARLAKRVLELAEKQGDAEVARRAVELVKRVAELLERIARESGSEEAKERAERVREEARELQERVKELREREGDGSHHWGSGLNDIFEAQKIEWHEGSHHHHHH
notes: also called LHD202 B64
B5: LHD101A V69Q (designed binder)
chain: GRQEKVLKSIEETVRKMGVTMETHRSGNEVKVVIKGLHIKQQRQLYRDVRETSKKQGVETEIEVEGDTQTIVVRE
B6: LHD101A_Q42M (designed binder)
chain: B5 chain with Q42M, Q69V
B7: LHD101A_T70W (designed binder)
chain: B5 chain with Q69V, T70W
B8: LHD101A_R43V (designed binder)
chain: B5 chain with R43V, Q69V
B9: 101B14 (designed binder)
single chain, LHD101 chain B fused to DHR14: HHHHHHGSGLNDIFEAQKIEWHEAENLYFQSGSSEEVNERVKQLAEKAKEATDKEEVIEIVKELAELAKQSTDSELVNEIVKQLAEVAKEATDKELVIYIVKILAELAKQSTDSELVNEIVKQLAEVAKEATDKELVIYIVDILLKLAEQADDDELVEEIRKQLEEVAKEATDKELVEIIKAVIVLLVIISVVARMGVTMEIHKSGREVKVVIKGLHESQQEQLLEAVLRAAEEAGVRVRIRFKGDTVTIVVRG
notes: also called LHD101 B14
B10: 278B (designed binder)
chain: GGSTVTFDITNIDWKSAELIMLAVYDIAQQEGTDVTFSFKEGELQITVKNLHEKWKRLIEMLIEACRRAQDPDPESLKEAVRIAEELVRLHPGNPLARAALKVILTAAEELAKLPDPEALKEAVKAAEKVVREQPGSNLAKKALEIILRAAEELAKLPDPEALKEAVKAAEKVVREQPGSELAKKALEIIERAAEELKKSPDPEAQKEAKKAEQKVREERPGSGGSGSHHWGSGSHHHHHH
notes: also called LHD278 B; LHD278 chainB
B11: 202B57 (designed binder)
chain: GSSVEFHIVNISEKAAQIIERAVRAISKELGTEVRFEKRDGELTIEVKNLHERRLQEILLLIEAVKLLLLALKAVKEDPSTDALRAVLEAVRFASEVAKRVENPEAVAVLAELVIELALEAVKEDPSTDALRAVLEAVRLASEVAKRVTDADKALKIAKLVIELALEAVKEDPSEEAKRAVEEAKRLAEEVSKRVTDPELSEKIRQLVKELEEEAQKEDPSGSHHWGSGLNDIFEAQKIEWHEGSHHHHHH
B12: LHD274 A76 (designed binder)
single chain, LHD274 chain A fused to DHR76: GSTTNFHLINGSEEARQVIEEIVEIIARLAGTEVHFEKSDGTLEIRVKNLHEELERLIKELIELALLLQLAKKEAIEEAKKQGNPELVEWVARAAEVVKEVLRVAAEAAGAGNPDLAKAAAELARAVIEAIEEAVKQGNAELVEWVARAAKVAAEVIKVAIQAEKEGNRDLFRAALELVRAVIEAIEEAVKQGNAELVERVARLAKKAAELIKRAIRAEKEGNRDERREALERVREVIERIEELVRQGNGSHHWGSGLNDIFEAQKIEWHEGSHHHHHH

Where a chain is given by its changes, count along the chain named. Names may count otherwise.

One data set concerns the target T1, 101B62.
T1 construct: also called LHD101B62
T1 chain: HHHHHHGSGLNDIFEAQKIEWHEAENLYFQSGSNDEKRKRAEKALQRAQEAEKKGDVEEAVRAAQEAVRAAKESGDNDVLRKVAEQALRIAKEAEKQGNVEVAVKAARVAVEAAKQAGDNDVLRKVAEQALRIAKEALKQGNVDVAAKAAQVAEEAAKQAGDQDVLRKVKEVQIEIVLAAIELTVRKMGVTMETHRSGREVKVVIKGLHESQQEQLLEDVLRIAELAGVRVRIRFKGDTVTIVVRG
Briefly: SEC binding assay (Superdex 200, normalised A230) of A, B and the mixture AB. As to the method:
(§1) Complexes and individual components were diluted in 20 mM Tris pH 8.0, 100 mM NaCl. After o/n equilibration of the mixtures at room temperature or 4 degrees C., 500 ul of sample was injected onto a Superdex™ 200 10/300 increase GL (dimers, linear assemblies) or Superose™ 6 increase 10/300 GL (symmetric assemblies) (all columns from GE healthcare) using the absorbance at 230 nm or 473 nm (for GFP tagged components) as read-out. Dimers were mixed at monomer concentrations of 5 μM or higher. Trimer and ABCD tetramer mixtures contained 5 μM of the bivalent connector, and 7.5 μM of each terminal cap (lower absolute concentrations with the same ratios were used for some trimers). ABCA tetramer mixtures contained 5 μM per bivalent connector and 15 μM terminal cap. The hexamer mixture contained 3 μM of components C and D, 3.6 μM of B and E, and 4.4 μM of A and F. The branched assembly shown in FIG. 4A contained 2.8 μM of the trivalent connector and 4 μM of each cap. For the exchange experiment shown in FIG. 5A, the ABC trimer was preincubated at concentrations of 6 μM B and 9 μM each of A and C. C′ was then added to reach a final concentration of 2 μM B, 3 μM each of A and C, and 6 μM C′.

In the data set “101B14” the target is B9. The description is as above. As for the experimental part: as §1
Data set [1] concerns the molecule itself. Briefly: SEC titration of the protomer alone at several injection concentrations (Superdex 200, normalised A230); self-association.
For the next data set, the target named is T2, LHD101 chainA.
T2 construct: also called LHD101A
T2 chain: B5 chain with Q69V
Description: BLI steady-state titration, biotinylated unfused LHD101A on a streptavidin sensor. An excerpt:
FIG. 8A-E. Characterization LHD binding in vitro. A: Designed models heterodimers (top row). Middle row, SEC binding experiments performed on a Superdex™ 75 column. Bottom row, biolayer interferometry kinetic binding traces. […] C: Kinetic binding traces from BLI. Equilibrium responses were used to fit equilibrium binding curves D: Equilibrium binding curves of LHDs from biolayer interferometry binding assays with data from C. […] Biotinylated unfused protomers were immobilized on streptavidin coated biosensors.
Biolayer interferometry experiments were performed on an OctetRED96 BLI system (ForteBio, Menlo Park, CA). Streptavidin coated biosensors were first equilibrated for at least 10 minutes in Octet buffer (10 mM HEPES pH 7.4, 150 mM NaCl, 3 mM EDTA, 0.05% Surfactant P20) supplemented with 1 mg/ml Bovine Serum Albumin (SigmaAldrich). Enzymatically biotinylated designs were immobilized onto the biosensors by dipping the biosensors into a solution with 10-50 nM protein for 30-120 s. This was followed by dipping in fresh octet buffer to establish a baseline for 120 s. Titration experiments were performed at 25° C. while rotating at 1,000 r.p.m. […]

Another data set deals with T3, LHD101 chainB.
T3 construct: also called LHD101B
T3 chain: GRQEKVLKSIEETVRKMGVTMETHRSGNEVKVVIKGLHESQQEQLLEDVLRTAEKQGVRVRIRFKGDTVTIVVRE
Briefly: BLI, dissociation rate constant (kdis). As to the method:
Biolayer interferometry experiments were performed on an OctetRED96 BLI system (ForteBio, Menlo Park, CA). Streptavidin coated biosensors were first equilibrated for at least 10 minutes in Octet buffer (10 mM HEPES pH 7.4, 150 mM NaCl, 3 mM EDTA, 0.05% Surfactant P20) supplemented with 1 mg/ml Bovine Serum Albumin (SigmaAldrich). Enzymatically biotinylated designs were immobilized onto the biosensors by dipping the biosensors into a solution with 10-50 nM protein for 30-120 s. This was followed by dipping in fresh octet buffer to establish a baseline for 120 s. Titration experiments were performed at 25° C. while rotating at 1,000 r.p.m. Association of designs was allowed by dipping biosensors in solutions containing designed protein diluted in octet buffer until equilibrium was approached followed by dissociation by dipping the biosensors into fresh buffer solution in order to monitor the dissociation kinetics. Steady-state and global kinetic fits were performed using the manufacturer's software (Data Analysis 9.1) assuming a 1:1 binding model.
In general terms: Biolayer interferometry detects binding as a change in optical thickness at a sensor tip.

Another data set concerns the target T4, DF202.
T4 construct: Bivalent connector
T4 chain: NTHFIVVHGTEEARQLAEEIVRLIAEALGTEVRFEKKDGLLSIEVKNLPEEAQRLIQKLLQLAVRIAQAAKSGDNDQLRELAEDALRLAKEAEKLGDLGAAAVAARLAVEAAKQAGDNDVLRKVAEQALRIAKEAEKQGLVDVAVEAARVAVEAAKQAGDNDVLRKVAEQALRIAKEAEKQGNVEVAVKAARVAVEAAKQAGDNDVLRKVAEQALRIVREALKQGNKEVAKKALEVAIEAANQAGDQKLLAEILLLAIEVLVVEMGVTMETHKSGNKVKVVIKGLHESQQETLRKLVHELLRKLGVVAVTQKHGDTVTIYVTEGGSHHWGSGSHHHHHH
Description: SEC of mixed components; trimer listed in Table 6. As for the experimental part:
as §1

In the next data set the target is T5, 274B53.
T5 construct: also called LHD274B DHR53 stop
T5 chain: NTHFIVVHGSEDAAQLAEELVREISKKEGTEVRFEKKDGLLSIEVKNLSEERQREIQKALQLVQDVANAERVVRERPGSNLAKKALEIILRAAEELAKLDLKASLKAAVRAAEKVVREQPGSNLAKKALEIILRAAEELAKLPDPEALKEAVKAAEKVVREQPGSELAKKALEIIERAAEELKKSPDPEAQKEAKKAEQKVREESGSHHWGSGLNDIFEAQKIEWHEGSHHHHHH
Description: SEC binding assay (Superdex 200, normalised A230) of A, B and the mixture AB. As to the method: as §1

As for B1, the binding result with 101B62 and with 101B14 was “binds” in each case.

On to B2, for which the binding result in data set [1] was “binds”.

Take B3: in the data set with LHD101 chainA, the binding result is “binds”.

Take B4: in data set [1], the binding result is recorded as “binds”.

The term koff denotes a measure of how fast the partners let go of each other. A low value points to a long-lived complex. Molecule B5 gave a koff in the data set with LHD101 chainB of 0.00653 s⁻¹.

As for B6, in the data set with LHD101 chainB, the koff came to 0.00941 s⁻¹.

In turn, B7 had a koff with LHD101 chainB of 0.0102 s⁻¹.

The molecule B8 had an off-rate constant (koff) in the data set with LHD101 chainB of 0.0113 s⁻¹. The koff values of the last two molecules are within 1.5-fold of each other.

As for B9, the binding result in data set [1] is reported as “no binding (tested: 114.0 uM)”.

As for B10, in data set [1], the binding result is “binds”.

With B11, the binding result with DF202 is listed as “binds”.

B12: the binding result with 274B53 was “binds”.
